According to patent EP4714975A1 (Nanjing Leads Biolabs Co., Ltd., dated 2026):

T1: cynomolgus monkey CD3 protein (ACRO Biosystems, Cat. No.: CDD-C52W4) (cynomolgus monkey, UniProt Q95LI5 22-117)
T1 sequence (looked up): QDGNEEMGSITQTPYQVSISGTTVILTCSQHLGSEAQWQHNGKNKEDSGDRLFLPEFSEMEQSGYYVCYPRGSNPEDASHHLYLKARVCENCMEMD


Key:
[1] = molecular target: T2, cynomolgus monkey LILRB4 protein (ACRO Biosystems, Cat. No.: CDK-C5227) (cynomolgus monkey); assay: BLI (ForteBio Octet RED96e), antibody captured on AHC sensor, antigen in solution, 1:1 model
T2 construct: Bought reagent

[2] = molecular target: human CD3 protein (Sino Biological, Cat. No.: CT038-H2508H) (human, UniProt P07766 23-126); assay: as above
Chain of human CD3 protein (Sino Biological, Cat. No.: CT038-H2508H) (P07766 23-126): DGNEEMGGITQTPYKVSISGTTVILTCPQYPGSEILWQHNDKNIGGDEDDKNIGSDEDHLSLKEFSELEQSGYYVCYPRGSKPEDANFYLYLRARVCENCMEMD

[3] = molecular target: T1, cynomolgus monkey CD3 protein (ACRO …); assay: as above
[4] = molecular target: T3, human LILRB4 endogenously expressed on tumor cells (MV-4-11, HL-60) (human, UniProt Q8NHJ6 22-448); assay: flow cytometry on MV-4-11 cells
T3 construct: whole, on cells; also called tumor cells (MV-411) expressing human LILRB4; HL-60 cells that endogenously express human LILRB4

[5] = molecular target: T4, human LILRB4 expressed on CHO-K1 cells (CHO-K1-huLILRB4) (human, UniProt Q8NHJ6 22-280); assay: flow cytometry on CHO-K1-huLILRB4 cells
T4 construct: also called engineered cells expressing human LILRB4

Binder	Kd [1]	koff [1]	kon [1]	Kd [2]	koff [2]	kon [2]	Kd [3]	koff [3]	kon [3]	binding result [4]	binding result [5]
anti-LILRB4xCD3 bispecific antibody huB1G5-CD3Fab (bispecific antibody, human IgG1, lambda, L234A L235A, HC1: CD3Fab heavy chain-knob; LC1: CD3Fab light chain; HC2: huB1G5-hole (VHH huB1G5-3 and Fc hole); One anti-LILRB4 VHH, one anti-CD3 Fab, knob-in-hole Fc) heavy 1: not shown light: QAVVTQEPSLTVSPGGTVTLTCRSSTGAVTTSNYANWVQQKPGQAPRGLIGGTNKRAPGVPARFSGSLLGGKAALTLSGAQPEDEAEYFCALWYSNLWVFGGGTKLTVLGQPKAAPSVTLFPPSSEELQANKATLVCLISDFYPGAVTVAWKADSSPVKAGVETTTPSKQSNNKYAASSYLSLTPEQWKSHRSYSCQVTHEGSTVEKTVAPTEC heavy 2: EVQLVESGGGLVQPGGSLRLSCAASESIFSSNVMGWYRQAPGKQRELVAAVGIQGLTKIGDSVKGRFTISRDNAKNSVYLQMNSLRAEDTAVYYCAAGAYVRFLQQSPDYWGQGTQVTVSSEPKSSDKTHTCPPCPAPEAAGGPSVFLFPPKPKDTLMISRTPEVTCVVVAVSHEDPEVKFNWYVDGVEVHNAKTKPREEQYNSTYRVVSVLTVLHQDWLNGKEYKCKVSNKALAAPIEKTISKAKGQPREPQVCTLPPSRDELTKNQVSLSCAVKGFYPSDIAVEWESNGQPENNYKTTPPVLDSDGSFFLVSKLTVDKSRWQQGNVFSCSVMHEALHNHYTQKSLSLSPGK	11 nM	0.00351 s⁻¹	320000 M⁻¹ s⁻¹	26.3 nM	0.00803 s⁻¹	305000 M⁻¹ s⁻¹	6.59 nM	0.0021 s⁻¹	318000 M⁻¹ s⁻¹	–	–
anti-LILRB4xCD3 bispecific antibody huB1G5-ScFv-2VHH (bispecific antibody, HC1: huB1G5-Hu34ScFv-knob (VHH, GGGGS, 23L2 ScFv, Fc knob); HC2: huB1G5-hole) heavy 1: not shown heavy 2: EVQLVESGGGLVQPGGSLRLSCAASESIFSSNVMGWYRQAPGKQRELVAAVGIQGLTKIGDSVKGRFTISRDNAKNSVYLQMNSLRAEDTAVYYCAAGAYVRFLQQSPDYWGQGTQVTVSSEPKSSDKTHTCPPCPAPEAAGGPSVFLFPPKPKDTLMISRTPEVTCVVVAVSHEDPEVKFNWYVDGVEVHNAKTKPREEQYNSTYRVVSVLTVLHQDWLNGKEYKCKVSNKALAAPIEKTISKAKGQPREPQVCTLPPSRDELTKNQVSLSCAVKGFYPSDIAVEWESNGQPENNYKTTPPVLDSDGSFFLVSKLTVDKSRWQQGNVFSCSVMHEALHNHYTQKSLSLSPGK	15.3 nM	0.00365 s⁻¹	238000 M⁻¹ s⁻¹	35.7 nM	0.0112 s⁻¹	313000 M⁻¹ s⁻¹	28.2 nM	0.00801 s⁻¹	284000 M⁻¹ s⁻¹	–	–
anti-LILRB4xCD3 bispecific antibody huB1G5-CD3-2VHH (bispecific antibody, human IgG1, lambda, L234A L235A, HC1: huB1G5-CD3Fab heavy chain-knob (VHH, GGGGS, hu34H1-VH, CH1, Fc knob); LC1: CD3Fab light chain; HC2: huB1G5-hole; Two anti-LILRB4 VHHs, one anti-CD3 Fab) heavy 1: not shown light: QAVVTQEPSLTVSPGGTVTLTCRSSTGAVTTSNYANWVQQKPGQAPRGLIGGTNKRAPGVPARFSGSLLGGKAALTLSGAQPEDEAEYFCALWYSNLWVFGGGTKLTVLGQPKAAPSVTLFPPSSEELQANKATLVCLISDFYPGAVTVAWKADSSPVKAGVETTTPSKQSNNKYAASSYLSLTPEQWKSHRSYSCQVTHEGSTVEKTVAPTEC heavy 2: EVQLVESGGGLVQPGGSLRLSCAASESIFSSNVMGWYRQAPGKQRELVAAVGIQGLTKIGDSVKGRFTISRDNAKNSVYLQMNSLRAEDTAVYYCAAGAYVRFLQQSPDYWGQGTQVTVSSEPKSSDKTHTCPPCPAPEAAGGPSVFLFPPKPKDTLMISRTPEVTCVVVAVSHEDPEVKFNWYVDGVEVHNAKTKPREEQYNSTYRVVSVLTVLHQDWLNGKEYKCKVSNKALAAPIEKTISKAKGQPREPQVCTLPPSRDELTKNQVSLSCAVKGFYPSDIAVEWESNGQPENNYKTTPPVLDSDGSFFLVSKLTVDKSRWQQGNVFSCSVMHEALHNHYTQKSLSLSPGK	10.6 nM	0.0023 s⁻¹	218000 M⁻¹ s⁻¹	22.6 nM	0.00549 s⁻¹	242000 M⁻¹ s⁻¹	6.92 nM	0.00191 s⁻¹	276000 M⁻¹ s⁻¹	–	–
h193 (a fully human monoclonal antibody against LILRB4) (antibody, human IgG1, kappa, V domains shown, Control antibody; also called antibody h193; control antibody h193) VH: EVQLVESGGGLVQPGGSLRLSCAASGFSLSSSYWISWVRQAPGKGLEWIGSIDSGSVGITYYATWVKGRFTISRDNSKNTLYLQMNSLRAEDTAVYYCARHGDNWALDLWGQGTLVTVSS VL: DLVMTQSPSTLSASVGDRVTITCQASQSINSWLAWYQQKPGKPPKLLIYKASTLASGVSSRFSGSGSGTEFTLTISSLQPDDVATYYCQHGYIRGDLDNVFGGGTKVEIKR	–	–	–	–	–	–	–	–	–	binds	binds
humanized anti-LILRB4 antibody huB1G5-1 (antibody, V domains shown, Humanized VHH-Fc heavy-chain antibody without light chain; also called Humanized anti-LILRB4 VHH huB1G5-1-Fc) VH: EVQLVESGGGLVQPGGSLRLSCAASESIFSSNVMGWYRQAPGKQRELVAAVGINGLTKIGDSVKGRFTISRDNAKNSVYLQMNSLRAEDTAVYYCAAGAYVRFLQNSPDYWGQGTQVTVSS	–	–	–	–	–	–	–	–	–	binds	–
anti-LILRB4 chimeric antibody B1G5 (antibody, human IgG1, V domains shown, also called Camelid-derived anti-LILRB4 VHH B1G5-Fc) VH: EVQLVESGGGLVQAGGSLRLSCAASESIFSSNVMGWYRQSPGHQRELVAAVGINGLTKIGDSVKGRFTISRDNAKNTVYLQMNSLKVEDTAVYYCAAGAYVRFLQNSPDYWGQGTQVTVSS	–	–	–	–	–	–	–	–	–	–	binds
humanized anti-LILRB4 antibody huB1G5-3 (antibody, V domains shown, Humanized VHH-Fc heavy-chain antibody without light chain; also called Humanized anti-LILRB4 VHH huB1G5-3-Fc) VH: EVQLVESGGGLVQPGGSLRLSCAASESIFSSNVMGWYRQAPGKQRELVAAVGIQGLTKIGDSVKGRFTISRDNAKNSVYLQMNSLRAEDTAVYYCAAGAYVRFLQQSPDYWGQGTQVTVSS	–	–	–	–	–	–	–	–	–	binds	–
anti-LILRB4 chimeric antibody 1H12 (antibody, human IgG1, V domains shown, also called Camelid-derived anti-LILRB4 VHH 1H12-Fc) VH: EVQVVESGGGLVQAGGSLRLSCAASETIFSSNVMGWYRQAHGKQRELVAATGINGVTKYADSVKGRFTISRDNAKNTVYLQMNSLNVEDTAVYYCAAGVWRNFVMRSPDYWGQGTQVTVSS	–	–	–	–	–	–	–	–	–	–	binds
anti-LILRB4 chimeric antibody B1A2 (antibody, human IgG1, V domains shown, also called Camelid-derived anti-LILRB4 VHH B1A2-Fc) VH: QVQLVESGGGLVQPGGSLRLSCAASGFTFSSYTMSWVRQAPGKGLEWISDINNDGGKTYYAFSVEGRFTISRDNAKNTLYLQMNSLKPEDTAVYYCVRDHQYTSRNGDRGQGTQVTVSS	–	–	–	–	–	–	–	–	–	–	binds
anti-LILRB4 chimeric antibody 2A3 (antibody, human IgG1, V domains shown, also called Camelid-derived anti-LILRB4 VHH 2A3-Fc) VH: EVQVVESGGGSVQTGGSLTLSCAASGRTFRSNGMGWFRQAPGKEREFVAAIRWSGRRTTYTDSVKGRFTISSDSAKNTVYLQMSSLKPEDTAVYYCAVDLLPPYGALDKYDYWGQGTQVTVSS	–	–	–	–	–	–	–	–	–	–	binds
